{
  "source": "paper PMC10151503",
  "about": "“Specific DNA binding of archaeal histones HMfA and HMfB”",
  "binders": {"B1": {"name": "Clone20 78 bp (dsDNA)", "DNA 1": "GGATCCCTGTCGGCACAGTTGAGCGATCAAAAACGCCGTAGAACGCTTTAATTGATAATCAAAGGCCGCAGAGAGCTC", "DNA 2": "GAGCTCTCTGCGGCCTTTGATTATCAATTAAAGCGTTCTACGGCGTTTTTGATCGCTCAACTGTGCCGACAGGGATCC"}, "B2": {"name": "Clone20R 78 bp (dsDNA)", "DNA 1": "CGGCGCAAATTCGTGACCAGTTGCATCAGCTGCGTGCGTAGAACGCTTTAATTGATAATCAAAGGCCGCAGAGAGCTC", "DNA 2": "GAGCTCTCTGCGGCCTTTGATTATCAATTAAAGCGTTCTACGCACGCAGCTGATGCAACTGGTCACGAATTTGCGCCG"}, "B3": {"name": "Nonspecific 78 bp (dsDNA)", "DNA 1": "CGGCGCAAATTCGTGACCAGTTGCATCAGCTGCGTGAGCTGTTTATCGCAGCATCGTAACAGGATAGTGAAGAAGACT", "DNA 2": "AGTCTTCTTCACTATCCTGTTACGATGCTGCGATAAACAGCTCACGCAGCTGATGCAACTGGTCACGAATTTGCGCCG"}, "B4": {"name": "Clone20L 78 bp (dsDNA)", "DNA 1": "GGATCCCTGTCGGCACAGTTGAGCGATCAAAAACGCCGTAGATTATCGCAGCATCGTAACAGGATAGTGAAGAAGACT", "DNA 2": "AGTCTTCTTCACTATCCTGTTACGATGCTGCGATAATCTACGGCGTTTTTGATCGCTCAACTGTGCCGACAGGGATCC"}},
  "key": {"HMfB D14A K30A E34A [1]": {"biological_target": "T1, HMfB D14A K30A E34A (Methanothermus fervidus, UniProt P19267 1-69, D14A;K30A;E34A)", "T1 sequence (P19267 whole entry D14A/K30A/E34A)": "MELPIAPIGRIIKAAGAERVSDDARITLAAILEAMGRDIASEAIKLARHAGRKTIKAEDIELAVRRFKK", "experiment": "MST; 0.2% Tween20; Hill h 3.51 ± 0.77; MST: 50 mM Tris-HCl pH 8, 75 mM KCl, 20 nM DNA (40 nM diluted 1:1), 5 min at room temperature (0.2% Tween20 where noted); TPM: 50 mM Tris-HCl pH 7, 75 mM KCl", "conditions": "protein: recombinant; chain copies: 4; label: 5' Cy5 top strand; blunt"}, "HMfB [2]": {"biological_target": "T2, HMfB (Methanothermus fervidus, UniProt P19267 1-69)", "T2 sequence (P19267 whole entry)": "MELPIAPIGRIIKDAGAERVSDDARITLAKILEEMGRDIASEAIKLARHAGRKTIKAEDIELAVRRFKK", "experiment": "MST; second (nonspecific) step; Hill h 1.44 ± 0.47; MST: 50 mM Tris-HCl pH 8, 75 mM KCl, 20 nM DNA (40 nM diluted 1:1), 5 min at room temperature (0.2% Tween20 where noted); TPM: 50 mM Tris-HCl pH 7, 75 mM KCl", "conditions": "protein: recombinant; chain copies: 2; label: 5' Cy5 top strand; blunt"}, "HMfA [3]": {"biological_target": "T3, HMfA (Methanothermus fervidus, UniProt P48781 1-69)", "T3 sequence (P48781 whole entry)": "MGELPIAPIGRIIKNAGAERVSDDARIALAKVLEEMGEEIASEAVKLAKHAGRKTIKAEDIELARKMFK", "experiment": "MST; Hill h 1.08 ± 0.21; MST: 50 mM Tris-HCl pH 8, 75 mM KCl, 20 nM DNA (40 nM diluted 1:1), 5 min at room temperature (0.2% Tween20 where noted); TPM: 50 mM Tris-HCl pH 7, 75 mM KCl", "conditions": "protein: recombinant; chain copies: 2; label: 5' Cy5 top strand; blunt"}, "HMfB [4]": {"biological_target": "T2, HMfB", "experiment": "MST; first (specific) step; Hill h 1.24 ± 0.91; MST: 50 mM Tris-HCl pH 8, 75 mM KCl, 20 nM DNA (40 nM diluted 1:1), 5 min at room temperature (0.2% Tween20 where noted); TPM: 50 mM Tris-HCl pH 7, 75 mM KCl", "conditions": "protein: recombinant; chain copies: 2; label: 5' Cy5 top strand; blunt"}, "HMfA [5]": {"biological_target": "T3, HMfA", "experiment": "MST; Hill h 0.992 ± 0.21; MST: 50 mM Tris-HCl pH 8, 75 mM KCl, 20 nM DNA (40 nM diluted 1:1), 5 min at room temperature (0.2% Tween20 where noted); TPM: 50 mM Tris-HCl pH 7, 75 mM KCl", "conditions": "protein: recombinant; chain copies: 2; label: 5' Cy5 top strand; blunt"}, "HMfB [6]": {"biological_target": "T2, HMfB", "experiment": "MST; first (specific) step; Hill h 7.45 ± 3.5; MST: 50 mM Tris-HCl pH 8, 75 mM KCl, 20 nM DNA (40 nM diluted 1:1), 5 min at room temperature (0.2% Tween20 where noted); TPM: 50 mM Tris-HCl pH 7, 75 mM KCl", "conditions": "protein: recombinant; chain copies: 2; label: 5' Cy5 top strand; blunt"}, "HMfB [7]": {"biological_target": "T2, HMfB", "experiment": "MST; second (nonspecific) step; Hill h 0.564 ± 0.30; error exceeds value; MST: 50 mM Tris-HCl pH 8, 75 mM KCl, 20 nM DNA (40 nM diluted 1:1), 5 min at room temperature (0.2% Tween20 where noted); TPM: 50 mM Tris-HCl pH 7, 75 mM KCl", "conditions": "protein: recombinant; chain copies: 2; label: 5' Cy5 top strand; blunt"}, "HMfB [8]": {"biological_target": "T2, HMfB", "experiment": "MST; Hill h 3.30 ± 0.97; MST: 50 mM Tris-HCl pH 8, 75 mM KCl, 20 nM DNA (40 nM diluted 1:1), 5 min at room temperature (0.2% Tween20 where noted); TPM: 50 mM Tris-HCl pH 7, 75 mM KCl", "conditions": "protein: recombinant; chain copies: 2; label: 5' Cy5 top strand; blunt"}, "HMfA [9]": {"biological_target": "T3, HMfA", "experiment": "MST; Hill h 1.08 ± 0.19; MST: 50 mM Tris-HCl pH 8, 75 mM KCl, 20 nM DNA (40 nM diluted 1:1), 5 min at room temperature (0.2% Tween20 where noted); TPM: 50 mM Tris-HCl pH 7, 75 mM KCl", "conditions": "protein: recombinant; chain copies: 2; label: 5' Cy5 top strand; blunt"}, "HMfB D14A K30A E34A [10]": {"biological_target": "T1, HMfB D14A K30A E34A", "experiment": "MST; 0.2% Tween20; Hill h 4.09 ± 0.62; MST: 50 mM Tris-HCl pH 8, 75 mM KCl, 20 nM DNA (40 nM diluted 1:1), 5 min at room temperature (0.2% Tween20 where noted); TPM: 50 mM Tris-HCl pH 7, 75 mM KCl", "conditions": "protein: recombinant; chain copies: 4; label: 5' Cy5 top strand; blunt"}, "HMfA [11]": {"biological_target": "T3, HMfA", "experiment": "MST; Hill h 1.23 ± 0.16; MST: 50 mM Tris-HCl pH 8, 75 mM KCl, 20 nM DNA (40 nM diluted 1:1), 5 min at room temperature (0.2% Tween20 where noted); TPM: 50 mM Tris-HCl pH 7, 75 mM KCl", "conditions": "protein: recombinant; chain copies: 2; label: 5' Cy5 top strand; blunt"}, "HMfB [12]": {"biological_target": "T2, HMfB", "experiment": "MST; second (nonspecific) step; Hill h 1.30 ± 0.38; MST: 50 mM Tris-HCl pH 8, 75 mM KCl, 20 nM DNA (40 nM diluted 1:1), 5 min at room temperature (0.2% Tween20 where noted); TPM: 50 mM Tris-HCl pH 7, 75 mM KCl", "conditions": "protein: recombinant; chain copies: 2; label: 5' Cy5 top strand; blunt"}},
  "data": [
    {"binder": "B1", "values": [
      {"measurement": "Kd", "setting": "HMfB D14A K30A E34A [1]", "result": "19.6 ± 1.19", "unit": "µM"},
      {"measurement": "Kd", "setting": "HMfB [2]", "result": "2.99 ± 0.81", "unit": "µM"},
      {"measurement": "Kd", "setting": "HMfA [3]", "result": "3.75 ± 0.1", "unit": "µM"},
      {"measurement": "Kd", "setting": "HMfB [4]", "result": "0.243 ± 0.16", "unit": "µM"}
    ]},
    {"binder": "B2", "values": [
      {"measurement": "Kd", "setting": "HMfA [5]", "result": "7.34 ± 2.8", "unit": "µM"},
      {"measurement": "Kd", "setting": "HMfB [6]", "result": "0.66 ± 0.047", "unit": "µM"},
      {"measurement": "Kd", "setting": "HMfB [7]", "result": "12.3 ± 27", "unit": "µM"}
    ]},
    {"binder": "B3", "values": [
      {"measurement": "Kd", "setting": "HMfB [8]", "result": "0.915 ± 0.089", "unit": "µM"},
      {"measurement": "Kd", "setting": "HMfA [9]", "result": "16.5 ± 6.7", "unit": "µM"},
      {"measurement": "Kd", "setting": "HMfB D14A K30A E34A [10]", "result": "22 ± 0.71", "unit": "µM"}
    ]},
    {"binder": "B4", "values": [
      {"measurement": "Kd", "setting": "HMfA [11]", "result": "8.09 ± 1.4", "unit": "µM"},
      {"measurement": "Kd", "setting": "HMfB [12]", "result": "4.11 ± 1", "unit": "µM"}
    ]}
  ]
}
